Where a chain is given by its changes, count along the chain named.
T1: hNEIL2 WT (Homo sapiens) (UniProt Q969S2)
T1 sequence: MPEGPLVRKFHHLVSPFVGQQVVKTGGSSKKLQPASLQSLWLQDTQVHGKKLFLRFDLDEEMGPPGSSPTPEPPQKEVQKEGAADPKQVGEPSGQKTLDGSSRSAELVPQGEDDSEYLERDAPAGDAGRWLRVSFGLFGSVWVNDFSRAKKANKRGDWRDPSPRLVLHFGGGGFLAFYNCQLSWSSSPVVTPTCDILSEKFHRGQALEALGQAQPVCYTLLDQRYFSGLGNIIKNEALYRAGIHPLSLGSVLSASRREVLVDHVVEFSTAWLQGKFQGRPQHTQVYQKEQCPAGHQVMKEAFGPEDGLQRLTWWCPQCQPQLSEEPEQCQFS

T2: hNEIL2 R103W R103W (Homo sapiens) (UniProt Q969S2)
T2 sequence: T1 sequence with R103W

T3: hNEIL2 P304T P304T (Homo sapiens) (UniProt Q969S2)
T3 sequence: T1 sequence with P304T

T4: hNEIL2 R103W (Homo sapiens, UniProt Q969S2 1-332, R103W)
T4 sequence: T1 sequence with R103W

T5: hNEIL2 P304T (Homo sapiens, UniProt Q969S2 1-332, P304T)
T5 sequence: T1 sequence with P304T

T6: hNEIL2 WT (Homo sapiens, UniProt Q969S2 1-332)
T6 sequence: T1 sequence

B1: 40C//40bubble (undamaged bubble) (dsDNA)
DNA 1: CCTGCATGGGCGGCAGAACTCGAGGCCATCCTCACCATCC
DNA 2: GGATGGTGAGGATGGGAGGTTCCCTTGCCGCCCATGCAGG

Key:
hNEIL2 WT (Homo sapiens) = molecular target: T1, hNEIL2 WT (Homo sapiens); assay: EMSA; details: THF (AP site analog) at position 21 of strand 1 (N); 25 mM potassium phosphate pH 7.5, 5 mM MgCl2, 1 mM DTT, 0.5 mg/mL BSA, 10% glycerol; 35 nM bubble or 100 nM duplex ligand; 5 min on ice, 8% native PAGE at 4 C
[1] = molecular target: T2, hNEIL2 R103W R103W (Homo sapiens); assay: EMSA; details: THF (AP site analog) at position 21 of strand 1 (N); 25 mM potassium phosphate pH 7.5, 5 mM MgCl2, 1 mM DTT, 0.5 mg/mL BSA, 10% glycerol; 35 nM bubble or 100 nM duplex ligand; 5 min on ice, 8% native PAGE at 4 C
[2] = molecular target: T3, hNEIL2 P304T P304T (Homo sapiens); assay: EMSA; details: THF (AP site analog) at position 21 of strand 1 (N); 25 mM potassium phosphate pH 7.5, 5 mM MgCl2, 1 mM DTT, 0.5 mg/mL BSA, 10% glycerol; 35 nM bubble or 100 nM duplex ligand; 5 min on ice, 8% native PAGE at 4 C
hNEIL2 R103W = molecular target: T4, hNEIL2 R103W; assay: EMSA; 5 mM Mg2+; apparent, sigmoidal fit; 25 mM potassium phosphate pH 7.5, 5 mM MgCl2, 1 mM DTT, 0.5 mg/mL BSA, 10% glycerol; 35 nM bubble or 100 nM duplex ligand; 5 min on ice, 8% native PAGE at 4 C; details: protein: recombinant; tags: C-terminal GHHHHHH; label: 32P; 10-nt central bubble between two 15-bp arms, blunt
hNEIL2 P304T = molecular target: T5, hNEIL2 P304T; assay: as above; details: protein: recombinant; tags: C-terminal GHHHHHH; label: 32P; 10-nt central bubble between two 15-bp arms, blunt
hNEIL2 WT = molecular target: T6, hNEIL2 WT; assay: as above; details: protein: recombinant; tags: C-terminal GHHHHHH; label: 32P; 10-nt central bubble between two 15-bp arms, blunt

| Molecule | K half (hNEIL2 WT (Homo sapiens)) [nM] | K half [1] [µM] | K half [2] [µM] | apparent K (half saturation) (hNEIL2 R103W) [µM] | apparent K (half saturation) (hNEIL2 P304T) [µM] | apparent K (half saturation) (hNEIL2 WT) [nM] |
| --- | --- | --- | --- | --- | --- | --- |
| CCTGCATGGGCGGCAGAACTNGAGGCCATCCTCACCATCC / GGATGGTGAGGATGGGAGGTTCCCTTGCCGCCCATGCAGG [40F//40bubble (THF bubble)] | 1000 | 10.4 | 6.4 |  |  |  |
| B1 |  |  |  | 11.7 ± 0.7 | 7 ± 0.3 | 1000 ± 100 |

Reference: article PMC8879280, “A Low-Activity Polymorphic Variant of Human NEIL2 DNA Glycosylase”
